Consider three molecules from EP4671282A1 (Jiangsu Hengrui Pharmaceuticals Co., Ltd., dated 2025).

Like-named read-outs stand apart in the source and are kept apart here.

Experiment [1] addresses T1, human IL-23 protein (ACROBiosystems, ILB-H52W5) (human, UniProt Q9NPF7 20-189; P29460 23-328).
T1 construct: Bought protein; construct not described; also called Human IL-23 antigen; human IL-23 antigen protein
T1 sequence (looked up) 1: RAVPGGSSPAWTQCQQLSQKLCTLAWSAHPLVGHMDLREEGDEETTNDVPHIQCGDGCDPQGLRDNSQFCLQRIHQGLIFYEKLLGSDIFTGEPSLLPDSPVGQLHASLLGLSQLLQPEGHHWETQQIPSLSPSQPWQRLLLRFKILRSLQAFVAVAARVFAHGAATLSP
T1 sequence (looked up) 2: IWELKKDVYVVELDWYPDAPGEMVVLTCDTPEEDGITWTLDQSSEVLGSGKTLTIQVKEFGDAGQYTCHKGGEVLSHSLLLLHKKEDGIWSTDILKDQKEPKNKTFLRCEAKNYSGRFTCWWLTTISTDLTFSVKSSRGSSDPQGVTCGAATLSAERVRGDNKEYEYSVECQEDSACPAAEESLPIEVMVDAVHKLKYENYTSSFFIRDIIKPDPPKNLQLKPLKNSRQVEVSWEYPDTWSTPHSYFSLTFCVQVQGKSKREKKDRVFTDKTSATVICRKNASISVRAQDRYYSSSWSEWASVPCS
Nature of the experiment: SPR (Biacore 8K), antibody captured by anti-human IgG Fc, IL-23 as analyte. (In general: Surface plasmon resonance follows binding to a sensor surface in real time, without labels.)

The target in experiment [2] is T2, Human IL-36R protein (His + Avi Tag), Kactus IL1-HM4L2 (human, UniProt Q9HB29 20-335).
T2 construct: Bought protein; also called human IL-36R antigen protein; Human IL-36R antigen
T2 sequence: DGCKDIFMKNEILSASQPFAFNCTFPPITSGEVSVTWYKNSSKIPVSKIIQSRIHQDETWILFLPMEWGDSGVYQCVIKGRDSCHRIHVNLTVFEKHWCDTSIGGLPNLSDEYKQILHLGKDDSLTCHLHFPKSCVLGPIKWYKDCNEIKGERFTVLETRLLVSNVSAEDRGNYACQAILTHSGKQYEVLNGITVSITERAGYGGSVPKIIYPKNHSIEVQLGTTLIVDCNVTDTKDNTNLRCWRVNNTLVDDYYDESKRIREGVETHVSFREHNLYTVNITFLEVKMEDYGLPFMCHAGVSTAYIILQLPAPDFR
In words: SPR (Biacore 8K), antibody captured by anti-human IgG Fc, IL-36R as analyte.

In experiment [3] the target is T3, IL-36R on human skin squamous cell line A431 (human, UniProt Q9HB29 20-575).
T3 sequence (looked up): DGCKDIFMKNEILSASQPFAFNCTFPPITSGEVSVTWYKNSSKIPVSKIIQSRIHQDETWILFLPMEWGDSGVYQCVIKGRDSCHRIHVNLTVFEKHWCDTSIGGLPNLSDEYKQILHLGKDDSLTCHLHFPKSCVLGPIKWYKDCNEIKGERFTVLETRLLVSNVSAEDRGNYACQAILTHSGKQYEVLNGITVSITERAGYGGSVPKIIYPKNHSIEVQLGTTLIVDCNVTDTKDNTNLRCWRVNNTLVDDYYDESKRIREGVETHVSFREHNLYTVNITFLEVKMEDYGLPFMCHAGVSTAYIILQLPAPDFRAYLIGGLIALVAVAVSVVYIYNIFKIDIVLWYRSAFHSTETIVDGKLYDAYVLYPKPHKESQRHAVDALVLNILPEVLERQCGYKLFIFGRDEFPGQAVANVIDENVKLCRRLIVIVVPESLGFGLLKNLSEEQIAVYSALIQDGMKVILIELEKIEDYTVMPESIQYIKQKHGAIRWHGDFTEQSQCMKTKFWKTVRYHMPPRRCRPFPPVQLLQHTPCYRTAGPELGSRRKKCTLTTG
Nature of the experiment: cell-based or functional assay.

Experiment [4] has as its target T4, human IL-23 protein (Sino Biological, CT048-H08H) (human, UniProt Q9NPF7 20-189; P29460 23-328).
T4 sequence (looked up) 1: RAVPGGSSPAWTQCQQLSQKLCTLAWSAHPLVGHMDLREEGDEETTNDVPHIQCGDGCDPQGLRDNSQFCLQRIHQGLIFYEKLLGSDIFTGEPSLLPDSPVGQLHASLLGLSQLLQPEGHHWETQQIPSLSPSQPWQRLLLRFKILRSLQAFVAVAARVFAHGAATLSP
T4 sequence (looked up) 2: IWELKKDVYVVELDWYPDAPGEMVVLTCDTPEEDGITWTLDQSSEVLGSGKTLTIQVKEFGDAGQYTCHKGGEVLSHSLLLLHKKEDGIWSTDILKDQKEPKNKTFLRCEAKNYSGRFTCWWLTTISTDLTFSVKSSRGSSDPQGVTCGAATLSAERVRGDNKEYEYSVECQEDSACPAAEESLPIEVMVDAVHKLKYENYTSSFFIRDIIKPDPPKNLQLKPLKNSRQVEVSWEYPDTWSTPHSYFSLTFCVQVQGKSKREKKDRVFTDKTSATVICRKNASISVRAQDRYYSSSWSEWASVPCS
In words: cell-based or functional assay.

Experiment [5] has as its target T4, human IL-23 protein (Sino Biological, …). Nature of the experiment: ELISA, test sample coated, His-tagged IL-23 in solution.
Experiment [6] has the same target. In words: SPR (Biacore 8K), antibody captured on Protein A chip, IL-23 as analyte.
Experiment [7] shares this target. Nature of the experiment: competition ELISA, IL-23R coated, biotinylated IL-23 preincubated with antibody.
Experiment [8] deals with T5, IL-23 (R&D Systems, 1290-IL-010) (UniProt Q9NPF7 20-189; P29460 23-328).
T5 sequence (looked up) 1: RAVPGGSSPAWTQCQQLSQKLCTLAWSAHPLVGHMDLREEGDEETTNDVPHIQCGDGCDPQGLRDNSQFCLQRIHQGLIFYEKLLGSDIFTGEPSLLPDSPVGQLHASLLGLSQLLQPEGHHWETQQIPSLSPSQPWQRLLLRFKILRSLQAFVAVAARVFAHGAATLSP
T5 sequence (looked up) 2: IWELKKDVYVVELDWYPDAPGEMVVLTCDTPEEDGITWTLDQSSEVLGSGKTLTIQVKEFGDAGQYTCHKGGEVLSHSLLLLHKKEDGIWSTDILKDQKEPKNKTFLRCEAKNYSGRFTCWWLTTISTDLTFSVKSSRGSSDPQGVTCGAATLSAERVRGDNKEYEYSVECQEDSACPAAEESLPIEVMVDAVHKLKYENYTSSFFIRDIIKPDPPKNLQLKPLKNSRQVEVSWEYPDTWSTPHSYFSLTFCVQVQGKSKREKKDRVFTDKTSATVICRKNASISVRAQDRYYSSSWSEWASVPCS
In words: cell-based or functional assay.

In experiment [9] the target is T2, Human IL-36R protein (His + Avi Tag), …. In words: SPR (Biacore 8K), antibody captured by anti-human IgG Fc, IL-36R as analyte. This is another data set of the same source.
Experiment [10] deals with T6, human IL-36R full-length protein stably expressed on CHO-K1 cells (human, UniProt Q9HB29 20-575).
T6 construct: FlpIn CHO-K1 line expressing the full-length protein; also called human IL-36R on the surface of CHO-K1 cells; CHO-K1 cells overexpressing human IL-36R
T6 sequence: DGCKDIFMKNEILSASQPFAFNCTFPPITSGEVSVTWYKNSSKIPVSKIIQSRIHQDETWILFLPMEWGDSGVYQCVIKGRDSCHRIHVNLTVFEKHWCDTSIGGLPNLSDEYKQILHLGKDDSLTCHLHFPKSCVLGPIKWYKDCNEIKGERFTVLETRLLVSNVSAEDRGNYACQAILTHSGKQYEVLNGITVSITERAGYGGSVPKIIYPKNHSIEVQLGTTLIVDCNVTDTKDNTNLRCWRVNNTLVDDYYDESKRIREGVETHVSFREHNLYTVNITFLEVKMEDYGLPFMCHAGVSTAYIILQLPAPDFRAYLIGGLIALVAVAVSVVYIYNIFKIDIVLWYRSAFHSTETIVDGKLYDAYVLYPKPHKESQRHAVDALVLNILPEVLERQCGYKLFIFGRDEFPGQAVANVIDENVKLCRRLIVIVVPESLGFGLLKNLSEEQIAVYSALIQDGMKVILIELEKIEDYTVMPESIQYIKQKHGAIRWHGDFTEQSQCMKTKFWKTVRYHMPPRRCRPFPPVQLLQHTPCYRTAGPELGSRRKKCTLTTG
Nature of the experiment: FACS, CHO-K1 cells overexpressing human IL-36R. A general note: Flow cytometry measures light scatter and fluorescence of single cells or particles in a stream.

Experiment [11] has as its target T6, human IL-36R full-length protein stably …. Nature of the experiment: FACS, CHO-K1 cells overexpressing human IL-36R. This is another data set of the same source.
The target is the same in experiment [12]. Nature of the experiment: FACS, CHO-K1 cells overexpressing human IL-36R. This is another data set of the same source.
The target in experiment [13] is T3, IL-36R on human skin squamous cell line …. Nature of the experiment: cell-based or functional assay. This is another data set of the same source.

As a reminder, the Kd is the constant that tells how readily two partners part at equilibrium. What is called koff is the rate constant with which the complex falls apart. In general, kon refers to the second-order rate constant of association. Broadly, the EC50 is the concentration needed to bring the measured effect to its halfway point. Low values mean higher potency in that assay, high ones lower potency in that assay. In general, IC50 refers to the concentration that inhibits the measured activity by half. Low values mean greater potency in that assay, high ones weaker potency in that assay.

B1: IL-36R-IL-23-03 (anti-IL-36R and anti-IL-23 bispecific antibody, VHH213_Hu07 on Hu29-19, Structure B) (bispecific antibody, human IgG1, kappa, L234A L235A)
heavy: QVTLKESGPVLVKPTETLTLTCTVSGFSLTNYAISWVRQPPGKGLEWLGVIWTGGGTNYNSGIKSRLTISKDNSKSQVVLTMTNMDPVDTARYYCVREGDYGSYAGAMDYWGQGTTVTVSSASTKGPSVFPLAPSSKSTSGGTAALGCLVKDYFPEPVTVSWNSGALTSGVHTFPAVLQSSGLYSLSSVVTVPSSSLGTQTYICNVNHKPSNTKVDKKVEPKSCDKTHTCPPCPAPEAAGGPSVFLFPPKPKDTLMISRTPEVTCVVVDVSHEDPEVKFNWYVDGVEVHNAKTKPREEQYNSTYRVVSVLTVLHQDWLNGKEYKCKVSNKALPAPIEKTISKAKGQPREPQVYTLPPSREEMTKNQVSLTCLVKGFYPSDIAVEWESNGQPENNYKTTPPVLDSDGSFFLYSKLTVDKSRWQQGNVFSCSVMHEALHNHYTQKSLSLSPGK
light: EVQLVESGGGLVQPGGSLRLSCAASGNTFSRYCMGWFRQAPGKELVGVAAIDSDGDTSYADSVEGRFTISRDNAKNTLYLQMNSLRAEDTAVYYCAADFTPSAPPRMGSGGYCFGDYWGQGTLVTVSSGGGGSGGGGSDIVLTQSPDSLAVSLGERATINCRASESVDYYGISSMHWFQQKPGQPPKLLIYRASNLESGIPARFSGSGSRTDFTLTISSLQAEDVAVYYCQQANKDPYTFGGGTKVEIKRTVAAPSVFIFPPSDEQLKSGTASVVCLLNNFYPREAKVQWKVDNALQSGNSQESVTEQDSKDSTYSLSSTLTLSKADYEKHKVYACEVTHQGLSSPVTKSFNRGEC
notes: VHH fused by a (G4S)2 linker to the N-terminus of the light chain; IgG1 L234A/L235A
In [1], B1 gave a Kd of 51.7 pM, an off-rate constant (koff) of 4.93e-05 s⁻¹ and a kon of 954000 M⁻¹ s⁻¹. In experiment [2], the Kd was 4280 pM, the koff was determined as 0.000108 s⁻¹ and the kon turned out to be 25300 M⁻¹ s⁻¹. Besides, in experiment [3], the “IL-36α-induced A431 IL-8 secretion IC50” value turned out to be 290 pM.

B2: Hu29-24 (humanized anti-IL-23 antibody) (antibody, human IgG1, kappa, L234A L235A)
heavy: not shown
light: DIVLTQSPDSLAVSLGQRATINCRASESVDYYGISSMHWFQQKPGQPPKLLIYRASNLESGIPARFSGSGSRTDFTLTISSLQAEDVAVYYCQQANKDPYTFGGGTKVEIKRTVAAPSVFIFPPSDEQLKSGTASVVCLLNNFYPREAKVQWKVDNALQSGNSQESVTEQDSKDSTYSLSSTLTLSKADYEKHKVYACEVTHQGLSSPVTKSFNRGEC
For B2, in [4], the “Activity in inhibiting proliferation of BaF3-IL-23R cells (IC50, nM)” value was 0.178 nM. The 50% effective concentration (EC50) in experiment [5] came out at 1220 pM. The affinity in experiment [6], expressed as Kd, was 14.9 pM. The same molecule displayed a concentration for half-maximal inhibition (IC50) in experiment [7] of 488 pM. The “IC50 for inhibiting IL-17 secretion” value in experiment [8] was 28.9 pM.

B3: H4H14706P2 (anti-human IL-36R antibody from Regeneron) (antibody, human IgG4 S228P, kappa, V domains shown)
VH: EVQLVESGGGLVQPGRSLRLSCTASGFTFDDYAIHWVRQSPGKGLEWVSVISWNSDVIGYADSVKGRFTISRDNAKNSLYLQMNSLRAEDTALYYCAKGYNWNFFDYWGQGTLVTVSS
VL: EIVLTQSPATLSLSPGERATLSCRASQSVSSYLAWYQQKPGQAPRLLIYNAANRATDIPARFSGSGSGTDFTLTISSLEPEDFAVYYCQQRSNWPLTFGGGTKVEIKR
notes: Control, self-expressed according to WO2020018503A2
For the molecule B3, in experiment [9], the Kd worked out at 6400 pM, the dissociation rate constant (koff) was found to be 0.000364 s⁻¹ and the kon is 56800 M⁻¹ s⁻¹. Moreover, in experiment [10], the EC50 worked out at 640 pM and the “Maximum MFI” value is 10600 MFI. Moreover, in experiment [11], it took 510 pM to reach a half-maximal effect (EC50) and the “Maximum MFI” value turned out to be 11200 MFI. Moreover, the “IL-36α-induced A431 IL-8 secretion IC50” value in experiment [3] is 150 pM. Besides, in experiment [12], the midpoint of the response, the EC50, lay at 370 pM and the “Maximum MFI” value stood at 10900 MFI. In experiment [13], the “IL-8 secretion (A431), IL-36α, IC50” value came out at 640 pM; the “IL-8 secretion (A431), IL-36β, IC50” value is 260 pM; the “IL-8 secretion (A431), IL-36γ, IC50” value was determined as 60 pM.
